Consider 11 molecules from paper PMC3158066, “An Inserted α/β Subdomain Shapes the Catalytic Pocket of Lactobacillus johnsonii Cinnamoyl Esterase” (PLoS ONE, 2011).

For orientation: Km means the substrate concentration at which the rate is half of its maximum. As a reminder, the Vmax is the rate approached at saturating substrate. For orientation: kcat means the maximal rate divided by the concentration of active sites. Broadly, the kcat/Km is the second-order rate constant that governs catalysis at low substrate concentration.

The target of series [1] is T1, LJ0536 (cinnamoyl esterase) (Lactobacillus johnsonii, UniProt D3YEX6, S106A).
T1 construct: gene FEE39_08260; full length in p15TV-L, E. coli BL21(DE3); His6-tag removed by TEV for kinetics; crystals: tag uncleaved, protease-treated (subtilisin or V8), residues 1-245 modelled, four C-terminal residues lost
In words: X-ray crystallography, co-crystal. In kind it is binding. Conditions: 0.1 M Tris pH 8.5, active site.

Series [2] deals with the molecule itself. The series is described as follows: crystal structure; sitting drop, protein at 15 mg/mL with His6-tag uncleaved, pre-treated with subtilisin (apo) or V8 protease (S106A); S106A co-crystallised with ethyl ferulate.
Substrate in the series “purified protein”: CCCC(=O)Oc1ccc([N+](=O)[O-])cc1
The series is described as follows: purified protein. Format: biochemical, Lactobacillus johnsonii. Conditions: HEPES pH 7.80, 25 °C (typical assay; saturation conditions as in ref 14), pH 7.8.

Series [3] concerns the molecule itself. The series is described as follows: SEC; gel filtration on Superose 12 10/300GL (FPLC), mobile phase 10 mM HEPES with 150 mM NaCl, calibrated with molecular weight standards.
Where [4] appears, read: deletion made by ligation at a SmaI junction.

On to `CCOC(=O)/C=C/c1ccc(O)c(OC)c1` [ethyl ferulate], for which the “X-ray crystallography, co-crystal” value in series [1] (Form I (5 mM ligand, 1.58 Å, 3PFB) and Form II (25 mM ligand, 1.82 Å, 3QM1)) was “The Ser106Ala-ethyl ferulate complex crystallized in two forms”.
As to `COc1cc(/C=C/C(=O)O)ccc1O` [ferulic acid], in series [1] (5 mM ligand, 1.75 Å), the “X-ray crystallography, co-crystal” value is reported as “co-crystallized this mutant with ferulic acid, ethyl ferulate, or chlorogenic acid”.

B1: apo-LJ0536 (wild type), as crystallised after treatment with subtilisin (enzyme, Lactobacillus johnsonii N6.2, UniProt D3YEX6 1-245, looked up)
chain: MATITLERDGLQLVGTREEPFGEIYDMAIIFHGFTANRNTSLLREIANSLRDENIASVRFDFNGHGDSDGKFENMTVLNEIEDANAILNYVKTDPHVRNIYLVGHSQGGVVASMLAGLYPDLIKKVVLLAPAATLKGDALEGNTQGVTYNPDHIPDRLPFKDLTLGGFYLRIAQQLPIYEVSAQFTKPVCLIHGTDDTVVSPNASKKYDQIYQNSTLHLIEGADHCFSDSYQKNAVNLTTDFLQN
notes: LJ0536, serine cinnamoyl esterase, Lactobacillus johnsonii N6.2; residues 1-245 seen in the map, four C-terminal residues lost to the protease, plus five residues of the expression tag; Crystallised with the His6 tag uncleaved, but only five residues of the expression tag are seen after the protease treatment; also called apo WT LJ0536; not shown: His6, N-terminal, kept
As to B1, in series [2], the binding result is recorded as “binds”.

B2: LJ0536 (cinnamoyl esterase) (Lactobacillus johnsonii; H225A) (protein)
chain: MATITLERDGLQLVGTREEPFGEIYDMAIIFHGFTANRNTSLLREIANSLRDENIASVRFDFNGHGDSDGKFENMTVLNEIEDANAILNYVKTDPHVRNIYLVGHSQGGVVASMLAGLYPDLIKKVVLLAPAATLKGDALEGNTQGVTYNPDHIPDRLPFKDLTLGGFYLRIAQQLPIYEVSAQFTKPVCLIHGTDDTVVSPNASKKYDQIYQNSTLHLIEGADACFSDSYQKNAVNLTTDFLQNNNAF
notes: full length in p15TV-L, E. coli BL21(DE3); His6-tag removed by TEV for kinetics; crystals: tag uncleaved, protease-treated (subtilisin or V8), residues 1-245 modelled, four C-terminal residues lost
On to B2, for which, in “purified protein”, the Km stood at 190 ± 40 µM, the Vmax turned out to be 0.65 µmol/min/mg, the kcat is 0.3 s⁻¹ and the kcat/Km was found to be 1570 M⁻¹ s⁻¹.

B3: LJ0536 Ser106Ala mutant, as crystallised after treatment with V8 protease (enzyme, Lactobacillus johnsonii N6.2)
chain: MATITLERDGLQLVGTREEPFGEIYDMAIIFHGFTANRNTSLLREIANSLRDENIASVRFDFNGHGDSDGKFENMTVLNEIEDANAILNYVKTDPHVRNIYLVGHAQGGVVASMLAGLYPDLIKKVVLLAPAATLKGDALEGNTQGVTYNPDHIPDRLPFKDLTLGGFYLRIAQQLPIYEVSAQFTKPVCLIHGTDDTVVSPNASKKYDQIYQNSTLHLIEGADHCFSDSYQKNAVNLTTDFLQNNNAF
notes: made from the p15TV-L wild-type clone; also called LJ0536 S106A; S106A; not shown: His6, N-terminal, kept
Turning to B3, the binding result in series [2] is listed as “binds”.

B4: LJ0536 (cinnamoyl esterase) (Lactobacillus johnsonii; S68A) (protein)
chain: MATITLERDGLQLVGTREEPFGEIYDMAIIFHGFTANRNTSLLREIANSLRDENIASVRFDFNGHGDADGKFENMTVLNEIEDANAILNYVKTDPHVRNIYLVGHSQGGVVASMLAGLYPDLIKKVVLLAPAATLKGDALEGNTQGVTYNPDHIPDRLPFKDLTLGGFYLRIAQQLPIYEVSAQFTKPVCLIHGTDDTVVSPNASKKYDQIYQNSTLHLIEGADHCFSDSYQKNAVNLTTDFLQNNNAF
notes: as for B2
B4: in “purified protein”, the Km is 80 ± 20 µM, the Vmax was 0.47 µmol/min/mg and the kcat is 0.22 s⁻¹.

B5: LJ0536 (cinnamoyl esterase) (Lactobacillus johnsonii; H32A) (protein)
chain: MATITLERDGLQLVGTREEPFGEIYDMAIIFAGFTANRNTSLLREIANSLRDENIASVRFDFNGHGDSDGKFENMTVLNEIEDANAILNYVKTDPHVRNIYLVGHSQGGVVASMLAGLYPDLIKKVVLLAPAATLKGDALEGNTQGVTYNPDHIPDRLPFKDLTLGGFYLRIAQQLPIYEVSAQFTKPVCLIHGTDDTVVSPNASKKYDQIYQNSTLHLIEGADHCFSDSYQKNAVNLTTDFLQNNNAF
notes: as for B2
B5: in “purified protein”, the Km was determined as 130 ± 80 µM, the Vmax is 0.09 µmol/min/mg, the kcat turned out to be 0.04 s⁻¹ and the kcat/Km is 318 M⁻¹ s⁻¹.

B6: LJ0536 (cinnamoyl esterase) (Lactobacillus johnsonii; Q145A) (protein)
chain: MATITLERDGLQLVGTREEPFGEIYDMAIIFHGFTANRNTSLLREIANSLRDENIASVRFDFNGHGDSDGKFENMTVLNEIEDANAILNYVKTDPHVRNIYLVGHSQGGVVASMLAGLYPDLIKKVVLLAPAATLKGDALEGNTAGVTYNPDHIPDRLPFKDLTLGGFYLRIAQQLPIYEVSAQFTKPVCLIHGTDDTVVSPNASKKYDQIYQNSTLHLIEGADHCFSDSYQKNAVNLTTDFLQNNNAF
notes: as for B2
For the molecule B6, in the series “purified protein”, the Km stood at 290 ± 40 µM, the Vmax was 2.05 µmol/min/mg, the turnover number (kcat) is 0.94 s⁻¹ and the kcat/Km is 3250 M⁻¹ s⁻¹.

B7: LJ0536 (cinnamoyl esterase) (Lactobacillus johnsonii; D138A) (protein)
chain: MATITLERDGLQLVGTREEPFGEIYDMAIIFHGFTANRNTSLLREIANSLRDENIASVRFDFNGHGDSDGKFENMTVLNEIEDANAILNYVKTDPHVRNIYLVGHSQGGVVASMLAGLYPDLIKKVVLLAPAATLKGAALEGNTQGVTYNPDHIPDRLPFKDLTLGGFYLRIAQQLPIYEVSAQFTKPVCLIHGTDDTVVSPNASKKYDQIYQNSTLHLIEGADHCFSDSYQKNAVNLTTDFLQNNNAF
notes: as for B2
As to B7, in the series “purified protein”, the Km was 220 ± 30 µM, the Vmax came out at 1.23 µmol/min/mg, the kcat came to 0.57 s⁻¹ and the kcat/Km is 2570 M⁻¹ s⁻¹.

B8: LJ0536, cinnamoyl esterase of Lactobacillus johnsonii N6.2 (wild type) (enzyme, UniProt D3YEX6 1-249, looked up)
chain: MATITLERDGLQLVGTREEPFGEIYDMAIIFHGFTANRNTSLLREIANSLRDENIASVRFDFNGHGDSDGKFENMTVLNEIEDANAILNYVKTDPHVRNIYLVGHSQGGVVASMLAGLYPDLIKKVVLLAPAATLKGDALEGNTQGVTYNPDHIPDRLPFKDLTLGGFYLRIAQQLPIYEVSAQFTKPVCLIHGTDDTVVSPNASKKYDQIYQNSTLHLIEGADHCFSDSYQKNAVNLTTDFLQNNNAF
notes: LJ0536, serine cinnamoyl esterase, Lactobacillus johnsonii N6.2; the crystallised fragment 1-245 is said to lack four C-terminal residues of the full-length protein; The protein as used for gel filtration; also called WT
In the case of B8, in the series “purified protein”, the Michaelis-Menten constant (Km) was determined as 160 ± 20 µM, the Vmax is 3.34 µmol/min/mg, the kcat was found to be 1.53 s⁻¹ and the kcat/Km is 9590 M⁻¹ s⁻¹. Further, the binding result in series [3] is on record as “binds”.

B9: LJ0536 (cinnamoyl esterase) (Lactobacillus johnsonii; DEL147-173) (protein)
chain: MATITLERDGLQLVGTREEPFGEIYDMAIIFHGFTANRNTSLLREIANSLRDENIASVRFDFNGHGDSDGKFENMTVLNEIEDANAILNYVKTDPHVRNIYLVGHSQGGVVASMLAGLYPDLIKKVVLLAPAATLKGDALEGNTQGQQLPIYEVSAQFTKPVCLIHGTDDTVVSPNASKKYDQIYQNSTLHLIEGADHCFSDSYQKNAVNLTTDFLQNNNAF
notes: as for B2
With B9, in the series “purified protein” (setting [4]), the Km came out at 650 ± 120 µM, the Vmax worked out at 0.28 µmol/min/mg, the kcat stood at 0.13 s⁻¹ and the kcat/Km amounted to 198 M⁻¹ s⁻¹.
